Data from the DeepSol protein solubility set.

Assay: soluble on expression in E. coli; label from the status in PepcDB or PDB records

| Sequence | soluble on expression in E. coli |
| --- | --- |
| MSLTSVVFLNPGNSTETFWVSYSQFMQAAARDLGLDLRILYAERDPQNTLQQARELFQGRDKPDYLMLVNEQYVAPQILRLSQGSGIKLFIVNSPLTLDQRELIGQSRQNYSDWIGSMVGDDEEAGYRMLKELLHKLGPVPAGHGIELLAFSGLKVTPAAQLRERGLRRALAEHPQVHLRQLVYGEWNRERAYRQAQQLLKRYPKTQLVWSANDEMALGAMQAARELGRKPGTDLLFSGVNSSPEALQALIDGKLSVLEAGHFTLGGWALVALHDDALGLDARRLGGPDWQLSLFQALTPAQARQLLRLGDQVGTRVDFRGLSAQGKPDSYRYPFGLQLLLREGHHHHHH | soluble |
| MSLTTLNIGLILPDVLGTYGDDGNALVLRQRARMRGINAEIQRVTLDDAVPSTLDLYCLGGGEDTAQILATEHLTKDGGLQTAAAAGRPIFAVCAGLQVLGDSFRAAGRVIDGLGLIDATTVSLQKRAIGEVETTPTRAGFTAELTERLTGFENHMGATLLGPDAEPLGRVVRGEGNTDVWAASENTDDQRQQFAEGAVQGSIIATYMHGPALARNPQLADLMLAKAMGVALKDLEPLDIDVIDRLRAERLAEGHHHHHH | soluble |
| MSLTVSPLSGSLTPIGSEVKRGAELAVQEQAAAFKALGYDLVLTPYDDQASATLAPQIARTIVADKNVLGVVGALNSSVSNVIAQAFGPAKLAMISPASTGDQLTQNGWNHFSRVVAPDSAQGVAAADYIAEELKAGSVVVISDNTAYGNGLTRVLMANLKKRKVPVAAYMGASTPAQIAEAVKRVKASSADVVYFGGTDDTGSQLVKALRAAGVTATFMGGDGLDSPSFLQRAGIAGAGVVYSTVFGPVSAFSNALDFSDRYRAAYKTKPSGVAVYAYDATNTLLSAIKAAAGNSRTLPTRAEVSAAVRKVNLPACFSADKSRCATITGAIAFSDSGERLRSRVMIMRFDDVLQPQVAKVQTVNAESLKEGHHHHHH | soluble |
| MSLTYEKLYELRQTLRPTTKDGLYTDNEKNREILTVRWSGNTENPKNFSAVAIGINPSKANDERSDKTLTQLARFLDMYGFTNFKMLNIFSSYSTQQTGIRANTQTDFSKFKGCLEDADMIILAWGTDRGAYKDEKNRILEFLKAEKFMEKVFCISETGNSSDTRHPSRISYSYQLVQFEESAEGGSHHHHHH | soluble |
| MSLVMKASVDDDDSGWELSMPEKMEKSNTNWVDITQDFEEACRELKLGELLHDKLFGLFEAMSAIEMMDPKMDAGMIGNQVNRKVLNFEQAIKDGTIKIKDLTLPELIGIMDTCFCCLITWLEGHSLAQTVFTCLYIHNPDFIEDPAMKAFALGILKICDIAREKVNKAAVFEEEDFQSMTYGFKMANSVTDLRVTGMLKDVEDDMQRRVKSTRSRQGEERDPEVELEHQQCLAVFSRVKFTRVLLTVLIAFTKKETSAVAEAQKLMVQAADLLSAIHNSLHHGIQAQNDTTKGDHPIMMGFEPLVNQRLLPPTFPRYAKIIKREEMVNYFARLIDRIKTVCEVVNLTNLHCILDFFCEFSEQSPCVLSRSLLQTTFLVDNKKVFGTHLMQDMVKDALRSFVSPPVLSPKCYLYNNHQAKDCIDSFVTHCVRPFCSLIQIHGHNRARQRDKLGHILEEFATLQDEAEKVDAALHTMLLKQEPQRQHLACLGTWVLYHNLRIMIQYLLSGFELELYSMHEYYYIYWYLSEFLYAWLMSTLSRADGSQMAEERIMEEQQKGRSSKKTKKKKKVRPLSREITMSQAYQNMCAGMFKTMVAFDMDGKVREGHHHHHH | not soluble |
| MSLVRIKDIALKAKVSSATVSRILNEDESLSVAGETRQRVINIAEELGYQTVAKRRKSRGQKQRAQPLIGVLSCLSPDQERQDPYFSSIRKGIEKECFEQEIFITNSIHLGSFQEHIFRELDGVIVIGRVHDEAVKHISGRLEHAVFINHSPDPQAYDSIGIDFESASRQAIDHLFDLGYKRLGYIGGQEKEHTLKDGQSIRRTIEDKRLTAFLESAAPQPEHVLIGEYSMREGYRLMKKAIDQGHLPEAFFIASDSMAIGALKALQEAGLQVPRDTAIVSFNGIEEAEFASTPLTTVKVYTEEMGRTGVKLLLDRLNGRTLPQHVTLPTTLIVRQSCGCTAKEGHHHHHH | soluble |
| MSLWEFYMPTDVFFGEKILEKRGNIIDLLGKRALVVTGKSSSKKNGSLDDLKKLLDETEISYEIFDEVEENPSFDNVMKAVERYRNDSFDFVVGLGGGSPMDFAKAVAVLLKEKDLSVEDLYDREKVKHWLPVVEIPTTAGTGSEVTPYSILTDPEGNKRGCTLMFPVYAFLDPRYTYSMSDELTLSTGVDALSHAVEGYLSRKSTPPSDALAIEAMKIIHRNLPKAIEGNREARKKMFVASCLAGMVIAQTGTTLAHALGYPLTTEKGIKHGKATGMVLPFVMEVMKEEIPEKVDTVNHIFGGSLLKFLKELGLYEKVAVSSEELEKWVEKGSRAKHLKNTPGTFTPEKIRNIYREALGVEGGSHHHHHH | soluble |
| MSLYHDGPIEVLPGVWLGAEESVGRWDIWAGNTAGNTVRVVNVAQEVEDPFDAAGPGRVSGWPRPSALPAETAKRRMKLRTYPAVVGDGTRPHVEYCHARWSHGELGLADLPADACLGDVLYPRAPENNEGLWRFWETIRWMEEGRQGGTPILIHSQCGVSRSATLAIAYTMALAAAGAMPQYLGHIRVMQDAYDFVKGKSCWIGPNHSLVFQLVDFARNLTTLLSEGHHHHHH | soluble |
| MSLYRLLIVEDEHLIRKWLRYAIDYQSLNILVVGEAKDGKEGAQLIQEEQPDIVLSDINMPIMTAFDMFEATKGQSYAKIILSGYADFPNAQSAIHYGVLEFLTKPLEKQALIDCLKTIMARIEEHKEKHLQEHTELYLPLPQANDQVPEVIKDMLAWIHSHFHGKIVISQLAHDLGYSESYLYTVTKKHLHITLSDYINQYRINQAIQLMFREPDLMVYQIAEAVGIYDYRYFDRVFKKYLGQTVKAFKEEHIFKQMDEGHHHHHH | soluble |
| MSLYSTDSGNLFHAGRILVVLVGLPATSKTLLSVAITRYTRWLGVRTKSFHFSEYKESAKNIPSDYFCVVPTSKEGVAFVEKLRMQMLNDILAFFNDLSGQLAIYDALNIRKIDRKNLETTFSEIGVKVLFIESIVSDQEIMNRNIALALESNDYKGLSTDEAIDEYMRRLSVNEPYYEMMTHDEELSYIKYINLGKQIIVKDNIHGYLVNKIVFFLMNLRQKKGCVYFARCGTSDKDNYIHDEELNEEGIHYSQVLKDFVLQRIKQKRQAKKNSDSLVEVIDGSHDEDLKTSLIVWTGPRKRTHDTALFFSKEGIKVQQRSELRQLNPGSIADLTDQQIMDKFPSEYKESLKDPYHFRFPRAESYHDLAVRMEPLLLEMEHTSKDILIIAHESTLRVLYGYLMACTCVELPNLNFTRDKLVEISFSPFCNTVELLNIPLTEGHHHHHH | soluble |
| MSMDNHIVIMAGGIGSRFWPMSTPECPKQFIDVMGCGRTLIQLTADRFDGVCPRENVWVVTSEKYIDIVREQLPEIPESNILAEPCARNTAPCIAYACWKIKKKHPNANVVVTPSDALVINTGEFRRVVEKALRFTDNSSAIVTLGIKPTRPETGYGYIAAGDQIMTDKEIFTVDAFKEKPDRETADRYLAEGNYFWNAGIFVWNVRTITSVMRVYAPGIAQIFDRIFPDFYTEKENETIKKLFPTCEAISIDYAVMEKAQEIYVLPASFGWSDLGTWGALRGLLPQDKSGNATVGADVRLYESKNCIVHTSEEKRVVIQGLDGYIIAEKDNTLLICKLDEEQRIKEFSK | not soluble |
| MSMNRQEISDLCVKSLEGRMVGTEAQNIENGNAFYRYFFTNFPDLRVYFKGAEKYTADDVKKSERFDKQGQRILLACHLLANVYTNEEVFKGYVRETINRHRIYKMDPALWMAFFTVFTGYLESVGCLNDQQKAAWMALGKEFNAESQTHLKNSNLPHV | not soluble |
| MSMQEMVTISIVTYNSRYIFNVLDQLKAELGTDSIYDIHIYDNHSETAYLEKLTTYEPFITIHRAEENQGFGHGHNQVLFNASTKYAIIFNPDVLVTKDVLDRLLNRIKIDKNIAVVSPKVLNEDGTTQYLVRQKLDVFDYMLRFIPFQFVKKIFDKRLSIYECRDLSDTETTDIKMGSGCFMLIDREKFVEIGGFDERFFMYFEDNDLCLRFGKAGYRILYTPFETVVHMYEKGAHKSRKLFKIFMQSMGKFFNKWGWRFFLEHHHHHH | soluble |
| MSNEISDRKVSDTLKDKKPMSLLLLGTDTGEFGRSYKGRTDTIMMMVINPKTNKTTVVSLPRDMKVNLPDYPDYSPAKINAAYTYGGVDETVKTIKKYFNVPTDAYVMVNMGGLEKAIDQVGGVTVKSPLTFDYEGYHFTKGVTYHMNGKKALAFSRMRYDDPRGDYGRQERQRLVIMALLKSSISYKTVVNQTFLNSISKQTMTNLTFDNMVALAQNYRHATDNVTTDHAQGQGDWENGVAYESVSQAECQRISNKLRAALGLKPETLKTGELEHHHHHH | soluble |
